Substitutions are numbered along the chain they refer to.
Columns and labels:
Protein A [1] = target: T1, Protein A (UniProt P38507 37-327); experiment: Protein A column chromatography, stepwise pH elution; eluted fractions analysed by cation exchange chromatography (peak area %)
T1 construct: Commercial chromatography resin; also called rProtein A Sepharose Fast Flow (GE Healthcare)

Protein A [2] = target: T2, Protein A (UniProt P38507 37-327); experiment: Protein A affinity chromatography, elution at pH 3.6
T2 construct: bought recombinant resin; also called rProtein A Sepharose Fast Flow

Protein A [3] = target: T2, Protein A; experiment: Protein A affinity chromatography, stepwise pH elution
Source text: Samples purified by batchwise elution were used as controls.

Protein A [4] = target: T1, Protein A; experiment: Protein A column chromatography, pH 3.6 elution; eluted fraction analysed by cation exchange chromatography (peak area %)
Experimental: The quantity of CM to be loaded was adjusted in a way that the quantity of the loaded antibody is 20 mg/ml resine. Fractions eluted under each condition were collected and the components contained in each elution fraction were identified by cation exchange chromatography analysis. […] Samples purified by batchwise elution were used as controls.
The values represent the area of elution peak expressed in percentage.

Protein A [5] = target: T2, Protein A; experiment: Protein A affinity chromatography, elution at pH 3.6 and pH 2.7

B1: J142-z72/L180-k (antibody, human IgG4 S228P, kappa)
heavy: QVQLVQSGSELKKPGASVKVSCKASGYTFTDNNMDWVRQAPGQGLEWMGDINTRSGGSIYNEEFQDRVTMTIDKSTGTAYMELSSLRSEDTAVYYCARRRSYGYYHDEWGEGTLVTVSSASTKGPSVFPLAPCSRSTSESTAALGCLVKDYFPEPVTVSWNSGALTSGVHTFPAVLQSSGLYSLSSVVTVPSSSLGTKTYTCNVDHKPSNTKVDKRVESKYGPPCPPCPAPEFLGGPSVFLFPPKPKDTLMISRTPEVTCVVVDVSQEDPEVQFNWYVDGVEVHNAKTKPREEQFNSTYRVVSVLTVLHQDWLNGKEYKCKVSNKGLPSSIEKTISKAKGQPREPQVYTLPPSQEEMTKNQVSLTCLVKGFYPSDIAVEWESNGQPENNYKTTPPVLDSDGSFFLYSRLTVDKSRWQEGNVFSCSVMHEALHNRFTQKSLSLSP
light: DIQMTQSPSSLSASVGDRVTITCKASRNIERNLAWYQQKPGQAPELLIYSASRKESGVPDRFSGSRYGTDFTLTISSLQPEDLATYYCQQYYSPPLTFGGGTKVEIKRTVAAPSVFIFPPSDEQLKSGTASVVCLLNNFYPREAKVQWKVDNALQSGNSQESVTEQDSKDSTYSLSSTLTLSKADYEKHKVYACEVTHQGLSSPVTKSFNRGEC
notes: also called homomeric antibody against FX
binding result (Protein A [1]): no binding

B2: J300-z107/L210-k (antibody, human IgG4 S228P, kappa)
heavy: QVQLVQSGSELKKPGASVKVSCKASGYTFTDNNMDWVRQAPGQGLEWMGDINTRSGGSIYNEEFQDRVIMTVDKSTDTAYMELSSLRSEDTAVYHCARRKSYGYYLDEWGEGTLVTVSSASTKGPSVFPLAPCSRSTSESTAALGCLVKDYFPEPVTVSWNSGALTSGVHTFPAVLQSSGLYSLSSVVTVPSSSLGTQTYTCNVDHKPSNTKVDKRVESKYGPPCPPCPAPEFLGGPSVFLFPPKPKDTLMISRTPEVTCVVVDVSQEDPEVQFNWYVDGVEVHNAKTKPREEQYNSTYRVVSVLTVLHQDWLNGKEYKCKVSNKGLPSSIEKTISKAKGQPREPQVYTLPPSQEEMTKNQVSLTCLVKGFYPSDIAVEWESNGQPENNYKTTPPVLDSDGSFFLYSKLTVDKSRWQEGNVFSCSVMHEALHNRYTQESLSLSP
light: B1 light with L83I, Y92S
notes: also called homomeric antibody J300-z107
binding result (Protein A [2]): no binding

B3: J142-z72/L180-k (antibody, human IgG4 S228P, kappa)
heavy: B1 heavy
light: B1 light
notes: also called homomeric antibody J142-z72; homomeric antibody against FX
binding result (Protein A [3]): no binding

B4: J300-z107/L210-k (antibody, human IgG4 S228P, kappa)
heavy: B2 heavy
light: B1 light with L83I, Y92S
notes: Homomeric by-product in the culture medium of Q407-z106/J300-z107/L210-k; also called homomeric antibody against FX
binding result (Protein A [4]): no binding

B5: J142-z73/L180-k (antibody, human IgG4 S228P, kappa)
heavy: B1 heavy with K438E
light: B1 light
notes: also called homomeric antibody J142-z73
binding result (Protein A [5]): no binding
